The values below come from patent US20230340152A1 (published 2023).

As usually defined, the Kd is the equilibrium constant for the complex coming apart. Low values mean higher affinity, high ones lower affinity. By koff is commonly meant the first-order rate constant of dissociation. Read a low koff as slow dissociation. As a reminder, the kon is the rate constant with which the complex forms. The low end stands for slow association, the high end for fast association.

The target in assay [1] is T1, Human CD73 on cells (MDA-MB-231, Jurkat CD73 knock-in, NCI-H322) (human, UniProt P21589 27-549).
T1 sequence: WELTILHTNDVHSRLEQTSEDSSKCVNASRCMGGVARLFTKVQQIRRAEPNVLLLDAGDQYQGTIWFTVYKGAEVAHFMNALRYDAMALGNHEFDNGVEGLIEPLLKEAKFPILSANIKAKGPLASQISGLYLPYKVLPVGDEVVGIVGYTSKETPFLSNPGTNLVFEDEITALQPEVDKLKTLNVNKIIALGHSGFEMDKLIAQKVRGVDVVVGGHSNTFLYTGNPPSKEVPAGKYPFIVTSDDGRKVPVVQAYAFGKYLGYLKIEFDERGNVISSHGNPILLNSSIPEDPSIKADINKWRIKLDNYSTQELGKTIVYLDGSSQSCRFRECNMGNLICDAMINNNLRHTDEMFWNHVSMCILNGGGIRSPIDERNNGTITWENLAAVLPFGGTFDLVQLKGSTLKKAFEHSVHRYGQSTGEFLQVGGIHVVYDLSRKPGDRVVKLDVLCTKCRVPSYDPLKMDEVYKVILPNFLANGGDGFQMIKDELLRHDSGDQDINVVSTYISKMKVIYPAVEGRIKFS
The assay can be described thus: cell-based or functional assay.

Assay [2] has as its target T2, Murine CD73 on cells (4T1, Jurkat mCD73 knock-in) (murine, UniProt Q61503 29-551).
T2 sequence (looked up): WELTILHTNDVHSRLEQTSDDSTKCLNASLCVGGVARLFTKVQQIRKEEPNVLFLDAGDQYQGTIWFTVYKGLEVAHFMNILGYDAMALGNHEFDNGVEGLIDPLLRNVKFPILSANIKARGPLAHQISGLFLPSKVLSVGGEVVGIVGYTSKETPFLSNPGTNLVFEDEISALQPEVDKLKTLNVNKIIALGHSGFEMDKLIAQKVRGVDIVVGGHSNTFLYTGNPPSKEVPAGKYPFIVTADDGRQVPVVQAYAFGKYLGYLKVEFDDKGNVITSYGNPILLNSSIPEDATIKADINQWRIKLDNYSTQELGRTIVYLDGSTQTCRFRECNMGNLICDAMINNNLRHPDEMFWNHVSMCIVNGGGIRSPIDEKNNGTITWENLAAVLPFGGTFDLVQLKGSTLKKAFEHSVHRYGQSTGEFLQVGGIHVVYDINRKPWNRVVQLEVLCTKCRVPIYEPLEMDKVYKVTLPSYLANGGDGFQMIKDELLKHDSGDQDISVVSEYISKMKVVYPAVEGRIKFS
Briefly: cell-based or functional assay.

Assay [3] addresses T3, Cynomolgus CD73 on MK-1 cells (cynomolgus, UniProt A0A2K5V5U7 27-549).
T3 construct: whole, on cells; also called MK-1 (cyno)
T3 sequence: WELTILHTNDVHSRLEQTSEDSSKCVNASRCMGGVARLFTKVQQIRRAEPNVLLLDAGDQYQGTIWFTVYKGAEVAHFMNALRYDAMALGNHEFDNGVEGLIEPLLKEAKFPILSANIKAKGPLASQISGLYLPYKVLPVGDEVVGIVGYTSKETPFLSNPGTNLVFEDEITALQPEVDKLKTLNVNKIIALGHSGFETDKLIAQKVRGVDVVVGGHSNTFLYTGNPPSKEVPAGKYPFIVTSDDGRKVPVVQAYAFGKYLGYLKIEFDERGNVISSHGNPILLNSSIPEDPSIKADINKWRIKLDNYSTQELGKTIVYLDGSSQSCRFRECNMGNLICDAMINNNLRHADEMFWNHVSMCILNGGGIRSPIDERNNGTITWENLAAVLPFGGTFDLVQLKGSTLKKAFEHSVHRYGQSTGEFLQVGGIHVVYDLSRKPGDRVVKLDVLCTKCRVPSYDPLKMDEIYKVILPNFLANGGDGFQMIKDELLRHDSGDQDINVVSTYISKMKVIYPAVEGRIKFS
Briefly: flow cytometry, MK-1 cells. As for the experimental part: Binding of MEDI9447 to native CD73 expressed on human, murine, and cynomolgus monkey cell lines was characterized by flow cytometry. The cells were incubated with various concentrations of MEDI9447 and antibody binding was monitored with and fluorophore-labeled anti-human Fc antibody. A plot of the median fluorescence intensity as a function of the MEDI9447 concentration was fitted nonlinearly using a one-site binding isotherm model to calculate the equilibrium dissociation constant.
(A flow cytometer gives signals particle by particle.)

Assay [4] deals with T1, Human CD73 on cells (MDA-MB-231, Jurkat …). The assay can be described thus: cell-based or functional assay. This is another data set of the same source.
The target in assay [5] is T2, Murine CD73 on cells (4T1, Jurkat mCD73 …). Briefly: cell-based or functional assay. The source holds these as a separate data set.
Assay [6] concerns the target T4, Human CD73 ECD (human, UniProt P21589 27-549).
T4 construct: Biotinylated in some assays; also called human CD73 extracellular domain; huCD73
T4 sequence: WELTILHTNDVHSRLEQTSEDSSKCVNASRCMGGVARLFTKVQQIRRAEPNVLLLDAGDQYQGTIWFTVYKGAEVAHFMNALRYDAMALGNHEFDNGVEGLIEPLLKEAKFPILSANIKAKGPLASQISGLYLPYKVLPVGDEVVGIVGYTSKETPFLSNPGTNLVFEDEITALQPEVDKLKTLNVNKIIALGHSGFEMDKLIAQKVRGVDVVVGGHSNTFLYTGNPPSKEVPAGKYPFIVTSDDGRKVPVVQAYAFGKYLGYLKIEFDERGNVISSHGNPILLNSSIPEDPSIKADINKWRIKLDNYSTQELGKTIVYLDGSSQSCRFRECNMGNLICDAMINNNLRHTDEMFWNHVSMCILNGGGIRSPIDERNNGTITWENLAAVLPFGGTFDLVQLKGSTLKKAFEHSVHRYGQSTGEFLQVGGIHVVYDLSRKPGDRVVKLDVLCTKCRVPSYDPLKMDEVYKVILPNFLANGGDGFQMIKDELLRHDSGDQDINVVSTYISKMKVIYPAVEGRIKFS
The assay can be described thus: SPR (ProteOn), antibody captured by anti-human Fc, CD73 ECD in mobile phase. An excerpt: (§1) A ProteOn XPR36 instrument was used to characterize binding of MEDI9447 to human, murine, and cynomolgus CD73 ECD. MEDI9447 was affinity-captured using an anti-human Fc antibody. CD73 ECD was in the mobile phase. The association and dissociation of CD73 to MEDI9447 could be accurately described with the Langmuir 1: 1 model.

Assay [7] has as its target T5, Cynomolgus CD73 ECD (cynomolgus, UniProt A0A2K5V5U7 27-549).
T5 construct: extracellular domain; also called cyno CD73
T5 sequence: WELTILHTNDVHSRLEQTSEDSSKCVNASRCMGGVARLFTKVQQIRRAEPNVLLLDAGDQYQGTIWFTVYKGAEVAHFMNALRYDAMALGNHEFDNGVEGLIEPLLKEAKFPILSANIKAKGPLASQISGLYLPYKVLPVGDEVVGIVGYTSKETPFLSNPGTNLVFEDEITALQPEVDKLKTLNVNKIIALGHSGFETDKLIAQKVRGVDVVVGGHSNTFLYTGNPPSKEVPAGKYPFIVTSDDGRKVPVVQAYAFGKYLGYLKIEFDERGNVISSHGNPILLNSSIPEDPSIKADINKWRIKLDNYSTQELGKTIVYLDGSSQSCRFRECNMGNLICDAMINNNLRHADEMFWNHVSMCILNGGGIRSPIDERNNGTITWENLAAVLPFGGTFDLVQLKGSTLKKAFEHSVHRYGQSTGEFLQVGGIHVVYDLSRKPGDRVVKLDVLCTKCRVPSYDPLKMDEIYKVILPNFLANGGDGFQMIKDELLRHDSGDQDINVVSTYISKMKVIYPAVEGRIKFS
Described as above.
Excerpt: as §1

In assay [8] the target is T6, Murine CD73 ECD (murine, UniProt Q61503 29-551, limits assumed).
T6 construct: extracellular domain; In-house recombinant ECD; also called murine CD73 extracellular domain; muCD73
T6 sequence (looked up): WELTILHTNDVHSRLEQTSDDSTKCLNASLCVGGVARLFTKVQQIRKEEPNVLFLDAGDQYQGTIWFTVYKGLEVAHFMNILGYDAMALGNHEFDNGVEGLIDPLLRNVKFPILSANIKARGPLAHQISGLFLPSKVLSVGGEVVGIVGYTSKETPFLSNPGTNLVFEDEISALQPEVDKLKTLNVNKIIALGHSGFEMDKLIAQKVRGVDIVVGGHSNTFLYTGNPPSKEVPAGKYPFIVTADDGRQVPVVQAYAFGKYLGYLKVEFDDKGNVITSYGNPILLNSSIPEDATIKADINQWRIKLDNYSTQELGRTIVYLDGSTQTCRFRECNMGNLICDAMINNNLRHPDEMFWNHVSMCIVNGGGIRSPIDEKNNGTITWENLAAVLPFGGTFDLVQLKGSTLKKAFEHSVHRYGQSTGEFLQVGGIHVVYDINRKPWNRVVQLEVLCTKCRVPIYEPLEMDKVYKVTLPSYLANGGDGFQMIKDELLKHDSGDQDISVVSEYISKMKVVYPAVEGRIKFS
Described as above.
Excerpt: as §1

Read-outs that look alike come from different tables or passages of the source.

B1: MEDI9447 (antibody, human IgG1, lambda, V domains shown)
VH: EVQLLESGGGLVQPGGSLRLSCAASGFTFSSYAYSWVRQAPGKGLEWVSAISGSGGRTYYADSVKGRFTISRDNSKNTLYLQMNSLRAEDTAVYYCARLGYGRVDEWGRGTLVTVSS
VL: QSVLTQPPSASGTPGQRVTISCSGSLSNIGRNPVNWYQQLPGTAPKLLIYLDNLRLSGVPDRFSGSKSGTSASLAISGLQSEDEADYYCATWDDSHPGWTFGGGTKLTVLG
notes: Human IgG1-TM (L234F, L235E, P331S), lambda light chain; also called clone 10.3 antibody; 73combo3
In the case of B1, the “FabZAP internalization, EC50, MDA-MB-231” value in assay [1] and in assay [4] was 3.5 pM throughout. The “FabZAP internalization, EC50, 4T1” value in assay [2] and in assay [5] was 18.5 pM throughout. The figures for the Kd in assay [3] and in assay [7] were 84 pM and 6.5 pM, respectively. For the same molecule, the “FabZAP internalization, maximum toxicity, MDA-MB-231” value in assay [4] was 97%. For the same molecule, the “FabZAP internalization, maximum toxicity, 4T1” value in assay [5] turned out to be 97%. Further, the koff in assay [6] is 1.06e-05 s⁻¹; in assay [7] it was 1.76e-05 s⁻¹; in assay [8], 2.32e-06 s⁻¹. The kon amounted to 2.57e+06 M⁻¹ s⁻¹ in assay [6], 2.71e+06 M⁻¹ s⁻¹ in assay [7] and 2.41e+06 M⁻¹ s⁻¹ in assay [8].
